According to PMC4368098:

Experiments:
[1] = target: DICER;ARGONAUTE2 (AGO2) (human;human) (UniProt Q9UPY3+Q9UKV8); assay: competition (fluorogenic siRNA processing); conditions: 80 nM BoPsi664, 30 nM each enzyme; Assay Buffer with 1 mM free Mg2+ (full composition not in the material), 37 C; indirect read-out by competitive inhibition of fluorogenic siRNA processing, no …
[2] = target: DICER (human) (UniProt Q9UPY3)

Row | Substance | IC50 [1] | K d,app from a Morrison-equation fit of enzymatic activity: DICER (25 nM) titrated with AGO2, fluorogenic DICER substrate BoGD664 (250 nM), 37°C [2] | K d,app from a Morrison-equation fit of enzymatic activity: DICER (25 nM) titrated with AGO2, fluorogenic DICER substrate BoPD664 (250 nM), 37°C [2] | molar ratio AGO2:DICER at which enzymatic activity on DICER substrates stops rising (titration of DICER, 25 nM, with AGO2) (molar ratio AGO2:DICER) [2]
1 | AllStars Negative Control siRNA | 209 nM |  |  | 
2 | ARGONAUTE2 (from UniProt Q9UKV8 1-859) (enzyme) |  | 2.2 nM | 0.54 nM | 1
